This data set can be described thus: soluble on expression in E. coli; label from the status in PepcDB or PDB records.
With “MKFAVSSKGDQVSDTLKSKIQAYLLDFDMELDENEPEIVISVGGDGTLLYAFHRYSDRLDKTAFVGVHTGHLGFYADWVPHEIEKLVLAIAKTPYHTVEYPLLEVIVTYHENEREERYLALNECTIKSIEGSLVADVEIKGQLFETFRGDGLCLSTPSGSTAYNKALGGAIIHPSIRAIQLAEMASINNRVFRTVGSPLLLPSHHDCMIKPRNEVDFQVTIDHLTLLHKDVKSIRCQVASEKVRFARFRPFPFWKRVQDSFIGKGELEHHHHHH”, the “soluble on expression in E. coli” value is recorded as “soluble”.
With “MKFEGIYTPAITPLSADGSIDTQAFAEVLEFLVESKVHGIVIGGSTGEYYAHTAEERLALAAHASEVIAGRLPLVVGTGAIRTEDSLAYAEAARAIGADAILVGSPPYALPTSREIAEHVLAVDRAAGLPIMLYNYPARMGVEMDEAFFAAVAGCRNIVAIKESSGSTAQLHRLACRHPRIALSCGWDDQALEFFAWGARSWVCAGSNFIPGEHLALYQACVVENDFAKGRRIMAAMMPLMDFLESGHFVQSIKHGCELAGLRAGGVRAPLKALDEAGKAALAEIVARLKGEVAR”, the “soluble on expression in E. coli” value is listed as “not soluble”.
In the case of “MKFGPIAIEEAEGAVLAHSTTAGEKRFRKAHRLSAEDISVLKRAGIVQVVAAVLSPDDLGEDAAAQRIAESMRFSGIEARPAATGRVNLHAKASGIFTVDAAMIDAINAVDPAITLATLAQHAPVEKGQMVATVKIIPFAVASTLVDTVVKICAGGEILAVNAYQPVRVGVIQTVLPGIKPSVLDKTLRVTEARLARSGGRLTAERRTPHEIAPVAEAAASLARDNDLVVIFGASAMSDFADVVPAAIERAGGTVVRAGMPVDPGNLLVLGTLGGKRIIGAPGCARSPKENGFDWVLDRLVAGLDVTAKDIAGMGVGGLLMEIPTRPQPREPLPAKSRLKVGIVLLAAGRSSRMGGPNKLLALFDGKPLVRRTAERALGSKASGTIVVTGHQRERVRAALSGLDVTFADNPDFANGLSTSLKAGIAYLPEDTAGAMIVLGDMPGVVSGDLDRLIDAFRKAGGNSVVRASHQGKRGNPVLLPRALFPAIAHLEGDTGARHLVEAEGLDVVDVEIGEGASVDVDTREALEGAGGVLQDLEHHHHHH”, the “soluble on expression in E. coli” value was “not soluble”.
For “MKFINIVGTTASGKTTFARQLALKLNLTHIEMDDLFWLDGWQETPDDEFFLKLKNKMDIAKDGWVLDGNYSRTLHLKLDKLDTMIWLDYSFTLNFYRSVKRAISRIITKEPLWENSNNYESFKQSFLSKNSIILWMINHYAKNRKKYLNMMHDPQYRHIQFIRLTSPKQAKVFLDSL”, the “soluble on expression in E. coli” value is given as “not soluble”.
Take “MKFYNREKELNYLKTYCQLDPNSILFVYGPKSSGKSTVMRRVIKELEDSNIVFFYYNLRKYATYSKEEFLRVFFEKSEKKYLLNKLELNLGVFKFGVEENFDFNNLKLNDVFAKINESINAVVEDGKKPVLIIDELQKLKNIYFNGGKSLLNELFNLFVSLTKMEHLCHVICLTSDTLFIEEIYQSSTLENTSKYYLIDWLRKGTIRNILKEEGFSEEEINYCLDYLSLPYEIVDLIENKKLGLSVEETIRQWINIEKDKIKYLIDTTDLDEEELYKVLSKFKDKIKISYEKEVKKEEMKYFKFLIKNEILFYDVINGIIKPTSVKKWYAIREILK”: the “soluble on expression in E. coli” value is listed as “not soluble”.
On to “MKGTQMLALNKKCWDIVAPYFFQVDCLPKYGPYTASEDEIHLFDSIKGKKVLDIGCGSGHSLQYMAEHGAEELWGLDLSSTQIETAHETLQSWNPKLICGAMEEERDIPKGYFDIVYSIYALGWTSDLRKTLELIYSYVKPGGSFIFSWEHPVYSNLMYGTEEIAFSSSYHEETPITFETFKGEDVQATLYKRKMSTYINELNRVGFTIERIEEPLEHHHHHH”, for which the “soluble on expression in E. coli” value was “not soluble”.
On to “MKGVSRHVFVRIVQAIIMKHLVYCFKLDNDEFNLKNKYKKYKPCVTRVYDDLNTIYRYISNNKIINLEHHHHHH”, for which the “soluble on expression in E. coli” value is given as “not soluble”.
With “MKGYQSLVFNFFFLKLSAENESTPIQQLLEHFLRQLQRKDPHGFFAFPVTDAIAPGYSMIIKHPMDFGTMKDKIVANEYKSVTEFKADFKLMCDNAMTYNRPDTVYYKLAKKILHAGFKMMSKERLLALKRSMSFMQDMDFSQQAALLGNEDTAVEEPVPEVVPVQVETAKKSKKPSREVISCMFEPEGNACSLTDSTAEEHVLALVEHAADEARDRINRFLPGGKMGYLKRNGDGSLLYSVVNTAEPDADEEETHPVDLSSLSSKLLPGFTTLGFKDERRNKVTFLSSATTALSMQNNSVFGDLKSDEMELLYSAYGDETGVQCALSLQEFVKDAGSYSKKVVDDLLDQITGGDHSRTLFQLKQRRNVPMKPPDEAKVGDTLGDSSSSVLEFMSMKSYPDVSVDISMLSSLGKVKKELDPDDSHLNLDETTKLLQDLHEAQAERGGSRPSSNLSSLSNASERDQHHLGSPSRLSVGEQPDVTHDPYEFLQSPEPAASAKT”, the “soluble on expression in E. coli” value is “soluble”.
In the case of “MKHESTKIPLVIFMHIPKTGGITLRNILDQQYRSEHILRLPQKNKLDNLLQKKGANIKKLQCVYGHHRFGVHEYFQQPFTYITMLRHPVERIISTYYFILQNERNRMHQKVKPLTFEQFVQSTDPDLQVPLTNHQTRYLSGERKPNLNKALQHMDTHFSVVGITELYNESLFIMKKKLGWDHISYQKKNVTKKRKRQTDIGLDTIEIIKRKNPLDLHLYETAKEKLQEHIKRLDSGARKELQQFLQDQNGFGPHGMAGDPLEHHHHHH”, the “soluble on expression in E. coli” value is “soluble”.
Turning to “MKHLEIELKTLLKKDEYNRLKDQFTGVTPVLQTNYYIDTPDFELREKKVAMRIRTFEDWAELTLKVPQSVGNMEYNQKLQLKDAENYLSKEELPQGLVLDELAKHGIQSKNWQVLGCLTTLRYEMKTAIGLMALDQSRYFDITDYELELEVENHEQGKQDFRQFLEKNQISYQKAPSKLVRFVKSMKNS”, the “soluble on expression in E. coli” value is reported as “not soluble”.
Then “MKHNLNAHEARVIGCLLEKQVTTPEQYPMSLNGLTLACNQKTSRDPVMELSESQVQQTLDFLLKKHLIRSQSGNRVMKYEHRFCNSEFGDLKFSPAEVAVITLLLLRGAQTPGELRTRTNRMYEFADVAETEETLKTLSLREDGPFVVRLAREPGKRESRFMPLFSGDVASSLLAAGEAEENNHTLEANPRETHSFENIALEKTALEARVAQLEQQVIQLSRRLDDVLIQLDDMKKLRVGIVGLGGIAQKAYLPILTQAQGWQLVGAFSPNQAKAQPLCDSYRMRYFSRLDTLAAASDAVFVHSSTASHFQVVHDLLQAGVHVYVDKPLAETREQSEQLIELADKQHLALMVGFNRRFAPLYQQLKQQASSPVSLRMEKHRLSSIGPHDLGFTLLDDYLHVVDTALWLGGEGARLTGGAVQTNAQGQMLYAEHHFQQGGCLITTSMHRQAGTQRESVQVISDGACYHITDMRQWQQASAGQVISQPAPGWQTTLEQRGFTGAVHHFIEAVSNQTRPQVSGEDAIVAQRMIERILQQ”, with “not soluble”.
Turning to “MKHYLAIDIGGTAIKYGLISETGDLLEKEEMATEAYKGGPSILEKVKGLVKTYQDQMDLAGVAISSAGMVNPDEGEIFYAGPQIPNYAGTQFKKEIEETFGLPCEVENDVNCAGLAEAISGSAKDYPVALCLTIGTGIGGCLLFNSQVFHGSSHSACEVGYLHLSDGQFQDLASTTALVQEVVLAYGDDISQWDGRRIFEQAKAGDAICIAAISKQVDYLGQGIANICYVVNPNVVVLGGGIMAQKDYLADKLKTALDSYLVSSLAKKTQLKFASHGNNAGILGAYYHFKQKNERSCSFITLEKIENNLASS”, the “soluble on expression in E. coli” value was “not soluble”.
Take “MKIALIGASGYVGSALLKEALSRGHHVTALVSRPERIAAQANLAAAKVDVQDSAQLAEQLKGFDAVLSAFSGHAQAEQFDYFVKGIRSIIAAAKAAQAPRLLVVGGAGSLEVAPGVQLVDTPEFPEQWKASALGAREALNLLRAETELNWTLLSPSAMLQPGQRTGQFRLGKDQLLVDAEGNSHISVEDYAVAMIDELEKGEHQRSRFTVGYLEHHHHHH”: the “soluble on expression in E. coli” value is recorded as “soluble”.
Take “MKIEEEFISASVNPRSHCLTACKTAPLVAYASSLQIAVQTIPKDDSEVGVIKSTSERRHQKPITVLKRLKSSEIVADEFVTGGVDSRVVLWKLRGEHVEYVADLTGCDGSVGSVCGCVEDGRKVVAAAWVSETSNGFHAWWTSSIGDLLNSTEIKLDHKAFALCLDAISIQNSVLLAVGTSKRFVELYGESADKKSFSRLISVAGHTDWIHSIAFNDNPDHLLVASAGQDTYVRLWAIEPETDEKSENIREDSSTTPPDELTSSANLFSINYTPYRCSSHAVMQGHDDWVHSTVWSNDGRVLLTASSDKTCIIWKEIDNLWRDDVRLGIVGGGQAAGFFAAVFSSSLDLKDSGEKNAENVVISSSYFGGLHCWKSTDEQKTFWTALPMTGGHVGEVRDVDWHRSDDGDSGFLMSVGQDQTTRVFAKNGRQQSYVEIARPQVHGHDMQCLSFVNPSIFVSGAEEKVFRAFRAPKSFVKSLEAISGVPTEKSFGDSDLAEFGACVPALGLSNKPMVEGETVDGEHWEEDAFRAAPVVLTSPPTEDTLQQNTLWPEQHKLYGHGYEVYAVTANPTGNVLATACKSSHVEHSVVMLWSTSNWSKKSEIIGHQLTVTQIAWNPSGTRLLTVSRDRTAKLYTEKNGEVDGFDYDCVWTSGKQHTRIIWACDWIDDEHFVTASRDQKVIVWAESAGQTAPKATVKLDEPVTAIAAVSKDVIVAGLQTGELIVLRFDSEGLHVIEKIGANRIPIDSAVLRLRFSKNGRKLAVATTDAKLRIFNVSQ”: the “soluble on expression in E. coli” value is given as “not soluble”.
Turning to “MKIGIVGLGRVGSSTAFALLMKGFAREMVLIDVDKKRAEGDALDLIHGTPFTRRANIYAGDYADLKGSDVVIVAAGVPQKPGETRLQLLGRNARVMKEIARNVSKYAPDSIVIVVTNPVDVLTYFFLKESGMDPRKVFGSGTVLDTARLRTLIAQHCGFSPRSVHVYVIGEHGDSEVPVWSGAMIGGIPLQNMCQVCQKCDSKILENFAEKTKRAAYEIIERKGATHYAIALAVADIVESIFFDEKRVLTLSVYLEDYLGVKDLCISVPVTLGKHGVERILELNLNEEELEAFRKSASILKNAINEITAEENKHQNTSG”, the “soluble on expression in E. coli” value is “soluble”.
Then “MKIIAFYLPQFHQIKENDRWWGKGFTEWTNTKSAQPLFSGHYQPREPYQDFYYDLTTPSVRKWQAEIAKAYGIYGFCYYHYWFKGKRLLETPFNEVLKMKEPDFPFCLSWANEPWTKSWDGLDKHILMPQDYGDISDWKEHFDYLLQAFQDERYIYIDDKPLFIIYRPGHIPDCEKMLNYWNALARANGLKGIYFAETLNSFPLPNINGFDASIQFEPFYTIAHDSSSDINKVIYDSDMQLNVWDYDKVWMYILQRSLPKKKTFPGAFVDWDNTARRKNANSSIFVGSTPEKFTIYLSKQIHRTYSFYNSEFLFINAWNEWAEGTYLEPDKKYGFSYLEGVKNAIDRGMKAYKKDESFLEHHHHHH”, with “not soluble”.
“MKIIAYGARVDEIQYFKQWAKDTGNTLEYHTEFLDENTVEWAKGFDGINSLQTTPYAAGVFEKMHAYGIKFLTIRNVGTDNIDMTAMKQYGIRLSNVPAYSPAAIAEFALTDTLYLLRNMGKVQAQLQAGDYEKAGTFIGKELGQQTVGVMGTGHIGQVAIKLFKGFGAKVIAYDPYPMKGDHPDFDYVSLEDLFKQSDVIDLHVPGIEQNTHIINEAAFNLMKPGAIVINTARPNLIDTQAMLSNLKSGKLAGVGIDTYEYETEDLLNLAKHGSFKDPLWDELLGMPNVVLSPHIAYYTETAVHNMVYFSLQHLVDFLTKGETSTEVTGPAK”: the “soluble on expression in E. coli” value is “soluble”.

These data come from the DeepSol protein solubility set.
